Patent US20140112919A1

Columns and labels:
rat anti hIL-10 mAb 12G8 = test: competitive ECLA (IGEN): unlabeled IL-10 titrated against hIL-10-biotin for binding to rat 12G8
[1] = biological target: T1, recombinant hIL-10Ra: FLAG-tagged protein (human) (UniProt Q13651); test: competitive ECLA (IGEN): unlabeled IL-10 titrated against hIL-10-biotin for binding to FLAG-tagged hIL-10Ra
T1 sequence: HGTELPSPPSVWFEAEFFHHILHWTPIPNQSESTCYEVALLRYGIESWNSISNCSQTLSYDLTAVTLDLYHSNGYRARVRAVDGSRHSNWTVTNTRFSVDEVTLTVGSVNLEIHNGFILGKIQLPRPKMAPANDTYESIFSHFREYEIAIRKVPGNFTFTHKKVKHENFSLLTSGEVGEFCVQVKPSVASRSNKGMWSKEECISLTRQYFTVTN

Chain of recombinant cyno IL-10 (P79338 19-178 limits assumed): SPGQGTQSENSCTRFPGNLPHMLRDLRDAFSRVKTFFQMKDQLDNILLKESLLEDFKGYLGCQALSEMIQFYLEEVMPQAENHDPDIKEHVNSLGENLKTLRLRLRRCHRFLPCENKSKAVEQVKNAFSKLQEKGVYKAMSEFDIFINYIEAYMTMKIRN

IC50 (rat anti hIL-10 mAb 12G8) [nM]	IC50 [1] [nM]	Substance
6.6	17.6	recombinant cyno IL-10 (from UniProt P79338) (ligand)
7.1	7.2	recombinant human IL-10-monomer (from UniProt P22301) (ligand)
4.7	2.9	recombinant human IL-10 (from UniProt P22301) (ligand)
